The supplement of paper PMC10065799, “High-throughput profiling of sequence recognition by tyrosine kinases and SH2 domains using bacterial peptide display” (eLife, 2023)

biological target: Fes (UniProt P07332); experiment: phosphorylation enrichment, bacterial display (enrichment ratio); higher = better substrate or ligand; peptides without Tyr show the background
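Also: 11-residue human phosphosite peptides and single-mutation variants displayed on the E. coli surface, counted by deep sequencing, each peptide's frequency after selection divided by its frequency in the unselected input library; frequency after pTyr selection over input frequency; kinase dosed for 20-30% of maximal phosphorylation in three min.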

Chain of Fes (P07332 whole entry, looked up): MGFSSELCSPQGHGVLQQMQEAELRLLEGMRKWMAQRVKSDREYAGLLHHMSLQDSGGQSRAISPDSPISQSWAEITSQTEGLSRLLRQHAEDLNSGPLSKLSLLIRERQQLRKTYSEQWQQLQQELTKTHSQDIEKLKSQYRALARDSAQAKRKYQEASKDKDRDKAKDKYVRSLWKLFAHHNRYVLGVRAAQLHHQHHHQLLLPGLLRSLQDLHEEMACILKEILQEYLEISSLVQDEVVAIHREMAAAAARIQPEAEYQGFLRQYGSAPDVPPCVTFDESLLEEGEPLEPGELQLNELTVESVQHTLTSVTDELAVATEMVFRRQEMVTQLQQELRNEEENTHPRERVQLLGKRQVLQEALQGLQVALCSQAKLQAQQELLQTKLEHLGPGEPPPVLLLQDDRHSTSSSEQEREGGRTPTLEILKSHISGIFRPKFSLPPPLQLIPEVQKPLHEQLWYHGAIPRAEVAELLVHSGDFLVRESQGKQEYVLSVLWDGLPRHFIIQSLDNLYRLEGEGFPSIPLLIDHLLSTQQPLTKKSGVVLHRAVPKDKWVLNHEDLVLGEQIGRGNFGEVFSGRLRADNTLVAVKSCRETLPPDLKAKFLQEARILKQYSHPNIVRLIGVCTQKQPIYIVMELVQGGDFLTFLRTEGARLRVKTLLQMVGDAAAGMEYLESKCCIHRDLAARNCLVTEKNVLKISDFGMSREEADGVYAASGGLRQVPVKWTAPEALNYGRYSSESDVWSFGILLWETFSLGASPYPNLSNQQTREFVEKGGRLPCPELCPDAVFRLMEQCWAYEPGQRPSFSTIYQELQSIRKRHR

Sequence | phosphorylation enrichment
PSDPSYEDMRE [BMPR1A_Y467] | 1.59
FSLIHYASIVD [MYH7_Y582_G584S] | 1.29
CNRADYSKLAS [GNE_Y22_P27S] | 0.95
PIFEGYGLPHA [ACTA1_Y171_A172G_YF] | 0.866
FKDFFYCWNTF [AICDA_Y146_YF] | 1.93
PLGPLYASSNT [INSR_Y992_P997T] | 0.949
TEAGNYKLCFD [TMED1_Y103_D102N] | 1.05
KKHIPYREHKS [CSNK1G1_Y205] | 2.94
RSSNTYTLTDV [ALCAM_Y298] | 0.921
EEVKAYLDFRE [CHAC2_Y78] | 1.44
DTVRIYDDDFF [UBA1_Y560_E557V] | 1.24
IGEGTYRQVFK [CDK13_Y716_G717R_YF] | 0.973
SYCYRYRCAAR [SUMF1_Y344] | 0.651
MASTSYDFCRV [BST2_Y6_YF] | 0.919
QMIETYFDFRV [NSMF_Y506_L511V] | 1.39
RQQEDYLLYKQ [RARRES1_Y159] | 1.65
AGLEDYDRLRP [RAC3_Y64_Q61L] | 0.933
AELVRYYMEHH [PTPN11_Y80_Q79R] | 1.12
TCRPPYFHRNC [HGD_Y333_F329C_YF] | 1.06
SVTCTYSPARN [TP53_Y126_L130R] | 1.37
FQEKGYNKEPR [CHRND_Y38_L42P] | 0.868
EDGCIYPATIA [SMN1_Y109] | 1.37
WSISFYPQVIM [CTNS_Y143] | 1.33
WQQQSYLYSGI [CTNNB1_Y30_D32Y] | 1.48
HESEIYCKVCY [CSRP3_Y57] | 1.25
LKTNWYNNGKD [DNMT3B_Y404_C403W] | 1.44
KPVDTYFDSTR [DYNC2H1_Y2230_M2227V_YF] | 0.997
VFLGAYDHFLP [SLC22A5_Y486_R488H_YF] | 0.955
RLPSGYGLAYR [DLK1_Y262] | 0.61

biological target: EPHB1 (UniProt P54762); experiment: as above
Sequence (P54762 whole entry, looked up): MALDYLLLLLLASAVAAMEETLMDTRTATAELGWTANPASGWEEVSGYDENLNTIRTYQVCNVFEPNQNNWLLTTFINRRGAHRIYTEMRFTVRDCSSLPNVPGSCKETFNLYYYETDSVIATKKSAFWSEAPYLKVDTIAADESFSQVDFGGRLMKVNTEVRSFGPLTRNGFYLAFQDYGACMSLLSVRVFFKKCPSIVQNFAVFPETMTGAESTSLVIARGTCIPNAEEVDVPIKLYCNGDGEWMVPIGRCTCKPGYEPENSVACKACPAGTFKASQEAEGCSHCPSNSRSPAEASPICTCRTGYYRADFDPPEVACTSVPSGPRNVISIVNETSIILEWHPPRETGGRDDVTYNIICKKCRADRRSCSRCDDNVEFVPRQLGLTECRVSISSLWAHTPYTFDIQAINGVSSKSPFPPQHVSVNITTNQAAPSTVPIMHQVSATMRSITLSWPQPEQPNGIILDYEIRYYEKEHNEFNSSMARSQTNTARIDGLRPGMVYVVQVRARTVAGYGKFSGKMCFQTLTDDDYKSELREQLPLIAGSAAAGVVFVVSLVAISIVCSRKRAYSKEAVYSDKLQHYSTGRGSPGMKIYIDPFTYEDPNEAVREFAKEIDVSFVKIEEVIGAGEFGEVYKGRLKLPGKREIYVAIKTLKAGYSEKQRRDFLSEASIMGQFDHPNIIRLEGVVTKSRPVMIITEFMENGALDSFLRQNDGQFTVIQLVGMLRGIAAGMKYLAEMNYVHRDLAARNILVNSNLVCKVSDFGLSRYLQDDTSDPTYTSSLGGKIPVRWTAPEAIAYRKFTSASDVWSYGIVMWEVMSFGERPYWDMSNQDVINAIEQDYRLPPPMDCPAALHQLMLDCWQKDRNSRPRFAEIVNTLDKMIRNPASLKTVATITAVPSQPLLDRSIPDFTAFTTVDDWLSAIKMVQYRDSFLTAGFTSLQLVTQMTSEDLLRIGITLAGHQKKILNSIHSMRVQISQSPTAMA

Sequence | phosphorylation enrichment
PSDPSYEDMRE [BMPR1A_Y467] | 0.901
FSLIHYASIVD [MYH7_Y582_G584S] | 0.83
CNRADYSKLAS [GNE_Y22_P27S] | 0.393
PIFEGYGLPHA [ACTA1_Y171_A172G_YF] | 0.469
FKDFFYCWNTF [AICDA_Y146_YF] | 0.862
PLGPLYASSNT [INSR_Y992_P997T] | 0.896
TEAGNYKLCFD [TMED1_Y103_D102N] | 0.53
KKHIPYREHKS [CSNK1G1_Y205] | 1.84
RSSNTYTLTDV [ALCAM_Y298] | 0.544
EEVKAYLDFRE [CHAC2_Y78] | 0.652
DTVRIYDDDFF [UBA1_Y560_E557V] | 0.777
IGEGTYRQVFK [CDK13_Y716_G717R_YF] | 0.603
SYCYRYRCAAR [SUMF1_Y344] | 0.309
MASTSYDFCRV [BST2_Y6_YF] | 0.576
QMIETYFDFRV [NSMF_Y506_L511V] | 2.29
RQQEDYLLYKQ [RARRES1_Y159] | 0.793
AGLEDYDRLRP [RAC3_Y64_Q61L] | 0.505
AELVRYYMEHH [PTPN11_Y80_Q79R] | 1.03
TCRPPYFHRNC [HGD_Y333_F329C_YF] | 0.215
SVTCTYSPARN [TP53_Y126_L130R] | 0.576
FQEKGYNKEPR [CHRND_Y38_L42P] | 0.738
EDGCIYPATIA [SMN1_Y109] | 0.744
WSISFYPQVIM [CTNS_Y143] | 0.586
WQQQSYLYSGI [CTNNB1_Y30_D32Y] | 3.97
HESEIYCKVCY [CSRP3_Y57] | 0.925
LKTNWYNNGKD [DNMT3B_Y404_C403W] | 0.468
KPVDTYFDSTR [DYNC2H1_Y2230_M2227V_YF] | 0.668
VFLGAYDHFLP [SLC22A5_Y486_R488H_YF] | 1.8
RLPSGYGLAYR [DLK1_Y262] | 0.464

biological target: FGFR3 (UniProt P22607); experiment: as above
Sequence (P22607 whole entry, looked up): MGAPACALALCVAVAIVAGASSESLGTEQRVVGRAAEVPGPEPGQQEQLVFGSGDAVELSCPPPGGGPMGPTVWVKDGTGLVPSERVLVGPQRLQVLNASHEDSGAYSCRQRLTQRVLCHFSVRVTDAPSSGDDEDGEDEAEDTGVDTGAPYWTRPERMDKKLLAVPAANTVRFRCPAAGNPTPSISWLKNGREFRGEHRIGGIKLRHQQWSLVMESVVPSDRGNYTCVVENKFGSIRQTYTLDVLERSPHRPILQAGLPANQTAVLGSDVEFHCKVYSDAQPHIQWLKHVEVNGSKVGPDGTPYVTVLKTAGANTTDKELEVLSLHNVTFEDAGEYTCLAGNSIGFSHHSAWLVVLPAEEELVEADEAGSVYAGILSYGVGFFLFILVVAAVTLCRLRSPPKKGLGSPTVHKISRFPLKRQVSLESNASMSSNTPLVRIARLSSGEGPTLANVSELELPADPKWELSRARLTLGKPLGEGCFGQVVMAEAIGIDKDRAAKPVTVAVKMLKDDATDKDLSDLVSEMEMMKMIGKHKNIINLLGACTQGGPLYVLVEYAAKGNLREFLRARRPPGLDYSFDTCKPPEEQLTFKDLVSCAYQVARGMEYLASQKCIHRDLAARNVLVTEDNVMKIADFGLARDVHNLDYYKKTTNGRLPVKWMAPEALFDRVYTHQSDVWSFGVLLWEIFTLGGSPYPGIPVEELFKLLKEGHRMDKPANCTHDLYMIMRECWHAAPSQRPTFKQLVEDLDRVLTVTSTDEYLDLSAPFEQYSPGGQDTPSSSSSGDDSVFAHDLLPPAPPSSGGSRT

Sequence | phosphorylation enrichment
PSDPSYEDMRE [BMPR1A_Y467] | 1.27
FSLIHYASIVD [MYH7_Y582_G584S] | 1.01
CNRADYSKLAS [GNE_Y22_P27S] | 0.47
PIFEGYGLPHA [ACTA1_Y171_A172G_YF] | 0.451
FKDFFYCWNTF [AICDA_Y146_YF] | 1.09
PLGPLYASSNT [INSR_Y992_P997T] | 0.73
TEAGNYKLCFD [TMED1_Y103_D102N] | 0.749
KKHIPYREHKS [CSNK1G1_Y205] | 3.18
RSSNTYTLTDV [ALCAM_Y298] | 0.705
EEVKAYLDFRE [CHAC2_Y78] | 0.865
DTVRIYDDDFF [UBA1_Y560_E557V] | 0.642
IGEGTYRQVFK [CDK13_Y716_G717R_YF] | 0.654
SYCYRYRCAAR [SUMF1_Y344] | 0.448
MASTSYDFCRV [BST2_Y6_YF] | 0.829
QMIETYFDFRV [NSMF_Y506_L511V] | 4.49
RQQEDYLLYKQ [RARRES1_Y159] | 0.86
AGLEDYDRLRP [RAC3_Y64_Q61L] | 0.744
AELVRYYMEHH [PTPN11_Y80_Q79R] | 0.673
TCRPPYFHRNC [HGD_Y333_F329C_YF] | 0.568
SVTCTYSPARN [TP53_Y126_L130R] | 0.756
FQEKGYNKEPR [CHRND_Y38_L42P] | 0.569
EDGCIYPATIA [SMN1_Y109] | 0.727
WSISFYPQVIM [CTNS_Y143] | 0.805
WQQQSYLYSGI [CTNNB1_Y30_D32Y] | 1.03
HESEIYCKVCY [CSRP3_Y57] | 0.855
LKTNWYNNGKD [DNMT3B_Y404_C403W] | 1.05
KPVDTYFDSTR [DYNC2H1_Y2230_M2227V_YF] | 0.73
VFLGAYDHFLP [SLC22A5_Y486_R488H_YF] | 0.811
RLPSGYGLAYR [DLK1_Y262] | 0.479

biological target: FGFR1 (UniProt P11362); experiment: as above
Sequence (P11362 whole entry, looked up): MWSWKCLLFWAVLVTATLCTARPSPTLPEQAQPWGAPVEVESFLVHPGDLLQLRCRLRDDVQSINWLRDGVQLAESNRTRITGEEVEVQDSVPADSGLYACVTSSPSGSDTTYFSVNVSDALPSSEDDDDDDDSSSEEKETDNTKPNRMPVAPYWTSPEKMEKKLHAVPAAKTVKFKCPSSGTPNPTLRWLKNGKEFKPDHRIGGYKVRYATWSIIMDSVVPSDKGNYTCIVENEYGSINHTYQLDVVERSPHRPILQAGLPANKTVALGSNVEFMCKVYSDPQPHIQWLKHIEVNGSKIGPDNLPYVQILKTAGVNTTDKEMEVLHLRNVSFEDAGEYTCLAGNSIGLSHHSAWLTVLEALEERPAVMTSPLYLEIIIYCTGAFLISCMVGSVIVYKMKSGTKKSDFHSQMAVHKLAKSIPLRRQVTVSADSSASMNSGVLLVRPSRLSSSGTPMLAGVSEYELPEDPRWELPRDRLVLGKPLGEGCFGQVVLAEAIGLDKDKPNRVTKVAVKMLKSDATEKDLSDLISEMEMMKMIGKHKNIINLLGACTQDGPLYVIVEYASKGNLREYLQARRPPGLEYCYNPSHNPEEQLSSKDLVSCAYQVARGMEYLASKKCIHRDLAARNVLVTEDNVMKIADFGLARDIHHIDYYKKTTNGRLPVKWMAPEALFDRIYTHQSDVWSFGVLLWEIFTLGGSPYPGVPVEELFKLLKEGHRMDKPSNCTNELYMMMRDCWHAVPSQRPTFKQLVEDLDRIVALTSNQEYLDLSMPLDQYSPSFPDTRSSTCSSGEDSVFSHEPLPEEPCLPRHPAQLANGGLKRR

Sequence | phosphorylation enrichment
PSDPSYEDMRE [BMPR1A_Y467] | 0.758
FSLIHYASIVD [MYH7_Y582_G584S] | 0.479
CNRADYSKLAS [GNE_Y22_P27S] | 0.367
PIFEGYGLPHA [ACTA1_Y171_A172G_YF] | 0.628
FKDFFYCWNTF [AICDA_Y146_YF] | 0.749
PLGPLYASSNT [INSR_Y992_P997T] | 0.633
TEAGNYKLCFD [TMED1_Y103_D102N] | 0.627
KKHIPYREHKS [CSNK1G1_Y205] | 1.31
RSSNTYTLTDV [ALCAM_Y298] | 0.519
EEVKAYLDFRE [CHAC2_Y78] | 0.584
DTVRIYDDDFF [UBA1_Y560_E557V] | 0.602
IGEGTYRQVFK [CDK13_Y716_G717R_YF] | 0.488
SYCYRYRCAAR [SUMF1_Y344] | 0.538
MASTSYDFCRV [BST2_Y6_YF] | 0.572
QMIETYFDFRV [NSMF_Y506_L511V] | 5.84
RQQEDYLLYKQ [RARRES1_Y159] | 0.743
AGLEDYDRLRP [RAC3_Y64_Q61L] | 0.836
AELVRYYMEHH [PTPN11_Y80_Q79R] | 0.623
TCRPPYFHRNC [HGD_Y333_F329C_YF] | 0.255
SVTCTYSPARN [TP53_Y126_L130R] | 0.53
FQEKGYNKEPR [CHRND_Y38_L42P] | 0.587
EDGCIYPATIA [SMN1_Y109] | 0.546
WSISFYPQVIM [CTNS_Y143] | 0.513
WQQQSYLYSGI [CTNNB1_Y30_D32Y] | 1.07
HESEIYCKVCY [CSRP3_Y57] | 1.03
LKTNWYNNGKD [DNMT3B_Y404_C403W] | 0.664
KPVDTYFDSTR [DYNC2H1_Y2230_M2227V_YF] | 0.624
VFLGAYDHFLP [SLC22A5_Y486_R488H_YF] | 0.611
RLPSGYGLAYR [DLK1_Y262] | 1.32
